Patent US20100196266A1
Blank lines part the entries; values can stand above or below the substance they belong to.

Columns and labels:
[1] = molecular target: human CD20 on cells (human) (UniProt P11836); assay: flow cytometry, MEC-1 (CLL) cells; no mAb 4.7
[2] = molecular target: human CD20 on cells (human) (UniProt P11836); assay: flow cytometry, Kasumi-3 (AML) cells; no mAb 9.6
[3] = molecular target: human CD20 on cells (human) (UniProt P11836); assay: flow cytometry, Jeko-1 (MCL) cells; no mAb 14.3
[4] = molecular target: human CD20 on cells (human) (UniProt P11836); assay: flow cytometry, K562 (CML) cells; no mAb 3.2
[5] = molecular target: human CD20 on cells (human) (UniProt P11836); assay: indirect flow cytometry, Namalwa cells, FITC-GAM; none 2.91
[6] = molecular target: canine CD20 on dog lymphocytes and lymphoma cells (dog) (UniProt Q3C2E2); assay: flow cytometry, dog lymphoma aspirate; none 3.85
[7] = molecular target: human CD20 on cells (human) (UniProt P11836); assay: flow cytometry, REH (ALL) cells; no mAb 3.9
[8] = molecular target: human CD20 on cells (human) (UniProt P11836); assay: flow cytometry, MN60 (ALL) cells; no mAb 8.1
[9] = molecular target: human CD20 on cells (human) (UniProt P11836); assay: flow cytometry, 697 (ALL) cells; no mAb 4.9
[10] = molecular target: human CD20 on cells (human) (UniProt P11836); assay: flow cytometry, Granta-519 (MCL) cells; no mAb 15.3
[11] = molecular target: human CD20 on cells (human) (UniProt P11836); assay: flow cytometry, WAC (CLL) cells; no mAb 15.8
[12] = molecular target: human CD20 on cells (human) (UniProt P11836); assay: flow cytometry, GDM-1 (AML) cells; no mAb 16.8
[13] = molecular target: human CD20 on cells (human) (UniProt P11836); assay: flow cytometry, Kasumi-1 (AML) cells; no mAb 18.2
[14] = molecular target: canine CD20 on dog lymphocytes and lymphoma cells (dog) (UniProt Q3C2E2); assay: flow cytometry, canine lymphoma aspirate 150836; none 3.9
[15] = molecular target: canine CD20 on dog lymphocytes and lymphoma cells (dog) (UniProt Q3C2E2); assay: flow cytometry, dog lymphoma aspirate; none 3.37
[16] = molecular target: human CD20 on cells (human) (UniProt P11836); assay: flow cytometry, HC-1 (hairy cell leukemia) cells; no mAb 4.8
[17] = molecular target: human CD20 on cells (human) (UniProt P11836); assay: flow cytometry, RS4;11 (ALL) cells; no mAb 6.4
[18] = molecular target: canine CD20 on dog lymphocytes and lymphoma cells (dog) (UniProt Q3C2E2); assay: flow cytometry, canine lymphoma aspirate 150836; none 3.4
[19] = molecular target: human leukocyte antigen-DR (HLA-DR) on human lymphoma and leukemia cell lines and human lymphocytes (human); assay: flow cytometry, WAC (CLL) cells; no mAb 15.8; isotype control
[20] = molecular target: human leukocyte antigen-DR (HLA-DR) on human lymphoma and leukemia cell lines and human lymphocytes (human); assay: flow cytometry, 697 (ALL) cells; no mAb 4.9; isotype control
[21] = molecular target: human leukocyte antigen-DR (HLA-DR) on human lymphoma and leukemia cell lines and human lymphocytes (human); assay: flow cytometry, Jeko-1 (MCL) cells; no mAb 14.3; isotype control
[22] = molecular target: human leukocyte antigen-DR (HLA-DR) on human lymphoma and leukemia cell lines and human lymphocytes (human); assay: flow cytometry, MN60 (ALL) cells; no mAb 8.1; isotype control
[23] = molecular target: antigen recognised by L243 on canine lymphocytes and canine lymphoma cells (HLA-DR of the dog) (dog); assay: flow cytometry, canine lymphoma aspirate 150836; none 3.4; control antibody
[24] = molecular target: human leukocyte antigen-DR (HLA-DR) on human lymphoma and leukemia cell lines and human lymphocytes (human); assay: flow cytometry, K562 (CML) cells; no mAb 3.2; isotype control
[25] = molecular target: antigen recognised by L243 on canine lymphocytes and canine lymphoma cells (HLA-DR of the dog) (dog); assay: flow cytometry, dog lymphoma aspirate; none 3.85; control antibody
[26] = molecular target: human leukocyte antigen-DR (HLA-DR) on human lymphoma and leukemia cell lines and human lymphocytes (human); assay: flow cytometry, MEC-1 (CLL) cells; no mAb 4.7; isotype control
[27] = molecular target: antigen recognised by L243 on canine lymphocytes and canine lymphoma cells (HLA-DR of the dog) (dog); assay: flow cytometry, canine lymphoma aspirate 150836; none 3.9; control antibody
[28] = molecular target: human leukocyte antigen-DR (HLA-DR) on human lymphoma and leukemia cell lines and human lymphocytes (human); assay: flow cytometry, Kasumi-1 (AML) cells; no mAb 18.2; isotype control
[29] = molecular target: human leukocyte antigen-DR (HLA-DR) on human lymphoma and leukemia cell lines and human lymphocytes (human); assay: flow cytometry, RS4;11 (ALL) cells; no mAb 6.4; isotype control
[30] = molecular target: human leukocyte antigen-DR (HLA-DR) on human lymphoma and leukemia cell lines and human lymphocytes (human); assay: flow cytometry, Kasumi-3 (AML) cells; no mAb 9.6; isotype control
[31] = molecular target: human leukocyte antigen-DR (HLA-DR) on human lymphoma and leukemia cell lines and human lymphocytes (human); assay: flow cytometry, HC-1 (hairy cell leukemia) cells; no mAb 4.8; isotype control
[32] = molecular target: antigen recognised by L243 on canine lymphocytes and canine lymphoma cells (HLA-DR of the dog) (dog); assay: flow cytometry, dog lymphoma aspirate; none 3.37; control antibody
[33] = molecular target: human leukocyte antigen-DR (HLA-DR) on human lymphoma and leukemia cell lines and human lymphocytes (human); assay: flow cytometry, GDM-1 (AML) cells; no mAb 16.8; isotype control
[34] = molecular target: human leukocyte antigen-DR (HLA-DR) on human lymphoma and leukemia cell lines and human lymphocytes (human); assay: flow cytometry, REH (ALL) cells; no mAb 3.9; isotype control
[35] = molecular target: human leukocyte antigen-DR (HLA-DR) on human lymphoma and leukemia cell lines and human lymphocytes (human); assay: indirect flow cytometry, Namalwa cells, FITC-GAM; none 2.91; control antibody
[36] = molecular target: human leukocyte antigen-DR (HLA-DR) on human lymphoma and leukemia cell lines and human lymphocytes (human); assay: flow cytometry, Granta-519 (MCL) cells; no mAb 15.3; isotype control
[37] = molecular target: canine CD22 on dog lymphocytes and lymphoma cells (dog); assay: flow cytometry, dog lymphoma aspirate; none 3.24
[38] = molecular target: canine CD22 on dog lymphocytes and lymphoma cells (dog); assay: flow cytometry, canine lymphoma aspirate 150836; none 3.2
[39] = molecular target: canine CD22 on dog lymphocytes and lymphoma cells (dog); assay: flow cytometry, dog lymphoma aspirate; none 4.48
[40] = molecular target: canine CD22 on dog lymphocytes and lymphoma cells (dog); assay: flow cytometry, canine lymphoma aspirate 150836; none 4.5
[41] = molecular target: human leukocyte antigen-DR (HLA-DR) on human lymphoma and leukemia cell lines and human lymphocytes (human); assay: indirect flow cytometry, Namalwa cells, FITC-GAH; none 2.52; irrelevant antibody
[42] = molecular target: canine CD22 on dog lymphocytes and lymphoma cells (dog); assay: flow cytometry, dog lymphoma aspirate; none 3.85
[43] = molecular target: canine CD22 on dog lymphocytes and lymphoma cells (dog); assay: flow cytometry, canine lymphoma aspirate 150836; none 3.9
[44] = molecular target: canine CD22 on dog lymphocytes and lymphoma cells (dog); assay: flow cytometry, dog lymphoma aspirate; none 3.37
[45] = molecular target: canine CD22 on dog lymphocytes and lymphoma cells (dog); assay: flow cytometry, canine lymphoma aspirate 150836; none 3.4
[46] = molecular target: human leukocyte antigen-DR (HLA-DR) on human lymphoma and leukemia cell lines and human lymphocytes (human); assay: indirect flow cytometry, Namalwa cells, FITC-GAM; none 2.91; irrelevant antibody

Chain of human CD20 on cells (human) (P11836 whole entry): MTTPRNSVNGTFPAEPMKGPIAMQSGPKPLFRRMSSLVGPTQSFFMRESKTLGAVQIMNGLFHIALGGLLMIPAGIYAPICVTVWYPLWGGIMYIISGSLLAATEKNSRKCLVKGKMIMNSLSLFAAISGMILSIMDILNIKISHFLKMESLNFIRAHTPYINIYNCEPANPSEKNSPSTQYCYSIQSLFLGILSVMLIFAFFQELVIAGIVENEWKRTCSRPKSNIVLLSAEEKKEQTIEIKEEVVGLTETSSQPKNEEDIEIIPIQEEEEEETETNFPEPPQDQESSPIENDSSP
Chain of canine CD20 on dog lymphocytes and lymphoma cells (dog) (Q3C2E2 whole entry): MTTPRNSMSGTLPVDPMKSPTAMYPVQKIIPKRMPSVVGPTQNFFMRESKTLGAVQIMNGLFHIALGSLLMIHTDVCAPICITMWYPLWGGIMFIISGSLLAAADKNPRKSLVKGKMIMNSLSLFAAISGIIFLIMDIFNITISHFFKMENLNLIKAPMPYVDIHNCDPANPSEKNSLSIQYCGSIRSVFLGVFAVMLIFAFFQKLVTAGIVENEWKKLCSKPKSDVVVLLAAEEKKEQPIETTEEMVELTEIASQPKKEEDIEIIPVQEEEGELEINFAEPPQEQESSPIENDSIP

mean FL [1]: 175
mean FL [2]: 11
mean FL [3]: 455
mean FL [4]: 4.3
GEO MEAN Fluorescence [5]: 6.16
% Positive [6]: 2.61%
mean FL [7]: 23.5
mean FL [8]: 162
mean FL [9]: 6.9
mean FL [10]: 677
mean FL [11]: 275
mean FL [12]: 15.6
mean FL [13]: 14.5
% Positive [14]: 2.6%
mean FL [15]: 3.11
mean FL [16]: 42.2
mean FL [17]: 11.5
mean FL [18]: 3.1
Substance: 2B8 (murine anti-CD20 mAb) (antibody)

mean FL [19]: 14.4
mean FL [20]: 5.6
mean FL [21]: 17.4
mean FL [22]: 10.5
mean FL [23]: 3
mean FL [24]: 4.1
% Positive [25]: 2.81%
mean FL [26]: 6
% Positive [27]: 2.8%
mean FL [28]: 17
mean FL [29]: 8.6
mean FL [30]: 15.7
mean FL [31]: 3.5
mean FL [32]: 3.04
mean FL [33]: 20.1
mean FL [34]: 3.9
GEO MEAN Fluorescence [35]: 3.64
mean FL [36]: 16.9
Substance: Ag8 (P3x63 Ag8, murine myeloma derived mAb) (antibody)

mean FL [37]: 3.37
mean FL [38]: 3.4
% Positive [39]: 4.85%
% Positive [40]: 4.9%
Substance: epratuzumab (hLL2, humanized anti-CD22 mAb) (antibody)

GEO MEAN Fluorescence [41]: 2.47
Substance: hRS7 (humanized anti-EGP-1) (antibody)

% Positive [42]: 5.05%
% Positive [43]: 5.1%
mean FL [44]: 3.73
mean FL [45]: 3.7
Substance: murine LL2 (anti-human CD22) (antibody)

GEO MEAN Fluorescence [46]: 3.39
Substance: murine RS7 (antibody)
